For assay [1], the target named is T1, rh-PD-1 recombinant protein (human, UniProt Q15116 25-170, limits assumed).
T1 construct: also called human-derived PD-1; PD-1 protein
As to the kind of experiment: ELISA on PD-1 protein. Background: An ELISA detects its analyte on a solid surface through an enzyme-linked reagent.

The target of assay [2] is T2, Macaca fascicularis PD-1 (Macaca fascicularis).
T2 construct: also called cyno PD-1
T2 chain: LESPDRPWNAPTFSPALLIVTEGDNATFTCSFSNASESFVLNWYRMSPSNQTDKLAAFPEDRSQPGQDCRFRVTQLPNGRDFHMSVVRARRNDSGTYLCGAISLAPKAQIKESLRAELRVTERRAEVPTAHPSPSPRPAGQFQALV
As to the kind of experiment: ELISA, PD-1 coated at 1 ug/ml, goat anti-human HRP detection. On the procedure: (§1) 1 ug /ml of human-derived PD-1, Macaca fascicularis PD-1, and mouse-derived PD-1 (Sinobiological) in the carbonate buffer solution (0.05 M PH9) were prepared and used to coat the wells of the 96-well flat-bottom plates at 4° C. overnight. The next day, solution was removed from the wells and the wells were washed three times with a washing buffer. PBS solution containing 3% BSA was added to block the wells for 20 minutes. […] The mixture was incubated at room temperature for 1 hour and then washed three times with a washing buffer. A HRP conjugated goat anti human antibody (Jackson Immunoresearch) was first diluted to 1: 10000 with the washing buffer and then added to the wells to incubate at room temperature for 1 hour. After washing three times with the washing buffer, 50 ul TMB substrate solution was added to the wells to develop the color. After 10 minutes at room temperature, the color development reaction was terminated with 25 ul 0.5M sulfuric acid solution and the absorbance was read at 450 nm.

For assay [3], the target named is T1, rh-PD-1 recombinant protein. The description is as above. On the procedure: as §1
The target is the same in assay [4]. As to the kind of experiment: ELISA, rh-PD-1 coated at 1 ug/ml, antibody at 1 ug/ml.
Method: The next day, solution was removed from the wells and the wells were washed three times with a washing buffer (PBS+0.5% TWEEN). PBS solution containing 3% BSA was added to the wells to block for 20 minutes. After washing three times with the washing buffer, 100 ul of each antibody clone was added at 1 ug/ml and incubated at room temperature for 1 hour. After three washes with the washing buffer, HRP cross-linked goat anti mouse antibody (Jackson Immunoresearch) was diluted in the washing buffer 1: 0000, and added to the sample wells and incubated at room temperature for 1 hour. After three washes with the washing buffer, 50 ul TMB (tetramethyl benzidine) substrate solution was added to develop the color. The color reaction was terminated after the reaction was continued for 10 minutes at room temperature by adding 25 ul of 0.5M sulfuric acid solution to the reaction mixture. The absorbance was then measured at 450 nm.

Positions count from the first letter of the chain named.

T1 sequence (Q15116 25-170 limits assumed): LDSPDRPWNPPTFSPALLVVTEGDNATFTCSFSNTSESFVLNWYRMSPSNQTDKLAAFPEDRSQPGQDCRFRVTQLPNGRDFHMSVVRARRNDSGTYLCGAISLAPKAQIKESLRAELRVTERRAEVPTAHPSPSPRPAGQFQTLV

B1: H1L1 (antibody, V domains shown)
VH: QGQLQQSGAELVRPGASVTLTCKASGYTFTDYEMHWVKQTPIHGLEWIGVIESETGGTAYNQKFKGKAKLTADKSSSTAYMELRSLTSEDSAVYYCTREGITTVATTYYWYFDVWGTGTTVTVSS
VL: DVLMTQTPLSLPVSLGDQASISCRSSQSIVHSNGNTYLEWYLQKPGQSPELLIYKVYNRFSGVPDRFSGSGSGTDFTLKISRVEAEDLGVYYCFQGSHVPFTFGSGTKLEIK
notes: also called original antibody 1 (heavy chain 1, light chain 1)
In general, EC50 refers to the concentration at which the effect is half-maximal. On to B1, for which, in assay [1], the EC50 was 0.338 nM.

B2: H10L10 (antibody, V domains shown)
VH: QVQLQQSGAELVRPGASVTLSCKASGYTFTDYEMHWVKQTPVHGLEWIGAIDPETGGAAYNQKFKGKAILTADKSSSTAYMELRSLTSEDSAVYYCTREGITTSVVTYYWYFDVWGTGTTVTVSS
VL: B1 VL with E50K, Y57S, K79R, A85P, F101L
notes: also called original antibody 10 (heavy chain 10, light chain 10)
Turning to B2, the EC50 in assay [1] is 0.426 nM.

B3: H10L1 (antibody, V domains shown)
VH: B2 VH
VL: B1 VL
notes: also called recombinant antibody H10L1 (heavy chain 10, light chain 1)
For B3, the EC50 in assay [1] is 0.528 nM.

B4: H1L10 (antibody, V domains shown)
VH: B1 VH
VL: B1 VL with E50K, Y57S, K79R, A85P, F101L
notes: also called recombinant antibody H1L10 (heavy chain 1, light chain 10)
B4: the EC50 in assay [1] stood at 0.27 nM.

B5: humanized antibody Clone 41 (antibody, V domains shown)
VH: QGQLVQSGAEVKKPGASVKVSCKASGYTFTDYEMHWVRQAPGQGLEWMGVIESETGGTAYNQKFQGRVTLTADKSSSTAYMELSSLRSEDTAVYYCTREGITTVATTYYWYFDVWGQGTLVTVSS
VL: B1 VL with L3V, T7S, S14T, D17Q, Q18P, E50Q, Y57S, L88V, F101L, S105Q
notes: Humanized antibody; also called hu41
For the molecule B5, the binding result in assay [2] and in assay [3] was “binds” throughout.

B6: Clone 11 (antibody, V domains shown)
VH: QVTLKESGPGILQPSQTLSLTCSFSGFSLSTFGMGVGWIRQPSGKGLEWLAHIWWDDDKYYNPALKSRLTISKNTSKNQVFLKIANVDTEDTATYYCARIEERFRWYFDVWGTGTTVTVSS
VL: RAGWTQESALTTSPGETVTLTCRSSTGAITTSNYANWVQEKPDHLFTGLIGGTNNRAPGVPARFSGSLIGDKAALTITGAQTEDEAIYFCALWYSNHWVFGGGTKLTVL
notes: Mouse hybridoma antibody; also called antibody candidate Clone 11
For the molecule B6, the binding result in assay [4] is reported as “binds”.

(Values after patent US20190023782A1 (SHANGHAI JUNSHI BIOSCIENCES, published 2019).)
